This passage reports koff results from paper PMC8326117 (2021).

The target in this assay is SARS-CoV-2 S-protein RBD (SARS-CoV-2, UniProt P0DTC2). Nature of the assay: SPR. Background: In SPR one partner is held on a chip, and binding of the other changes the refractive index at the surface.

B1: S-protein neutralizing peptide AYn1 (peptide)
peptide: KKKKKKDKFNHEAEDLFY
In general, koff refers to a measure of how fast the partners let go of each other. A lower koff goes with a long-lived complex. B1 came in with a koff of 0.001 s⁻¹.
